Experimental data: patent US20240376204A1 (JIANGSU HENGRUI PHARMACEUTICALS, published 2024)
Where two headings read alike, the source gives them in different places.

B1: 1708-151-4 (bispecific antibody, human IgG4 S228P, kappa)
heavy: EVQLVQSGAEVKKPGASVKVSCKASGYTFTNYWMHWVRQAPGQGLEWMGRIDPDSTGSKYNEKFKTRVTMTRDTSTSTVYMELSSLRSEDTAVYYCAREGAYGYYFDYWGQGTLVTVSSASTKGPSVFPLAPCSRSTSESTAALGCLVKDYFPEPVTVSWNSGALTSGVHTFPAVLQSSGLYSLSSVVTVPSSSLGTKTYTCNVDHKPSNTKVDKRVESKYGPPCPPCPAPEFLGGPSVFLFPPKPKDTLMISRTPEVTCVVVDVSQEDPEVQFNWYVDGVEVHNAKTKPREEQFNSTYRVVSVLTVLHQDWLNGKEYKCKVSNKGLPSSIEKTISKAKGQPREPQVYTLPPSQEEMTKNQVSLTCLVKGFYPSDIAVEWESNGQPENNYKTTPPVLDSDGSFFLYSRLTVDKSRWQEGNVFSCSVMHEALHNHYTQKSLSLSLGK
light: DIQMTQSPSSLSASVGDRVTITCRASENIYSYLAWYQQKPGKSPKLLIYNARTLAEGVPSRFSGSGSGTDFTLTISSLQPEDFATYYCQYHSGSPLPFGGGTKVEIKRTVAAPSVFIFPPSDEQLKSGTASVVCLLNNFYPREAKVQWKVDNALQSGNSQESVTEQDSKDSTYSLSSTLTLSKADYEKHKVYACEVTHQGLSSPVTKSFNRGECGGGGSGGGGSHVQLVESGGGSVQAGGSLRLSCVASASGFTYRPYCMAWFRQAPGKEREAVAGIDIFGGTTYADSVKGRFTASRDNAGFSLFLQMNDLKPEDTAMYYCAAGDSPDGRCPPLGQGLNYWGQGTQVTVSS
notes: Anti-PVRIG/TIGIT
B2: Tab5 (antibody, human IgG4 S228P, kappa, F234A L235A, V domains shown)
VH: EVQLVESGGGVVKPGGSLRLSCAASGFTFGTSSMNWVRQAPGKGLEWVAVISFDGTEIHYADSVKGRFTISRDNSKSTVFLQMNSLRPDDTALYYCAKGSGNIYFYSGMDVWGQGTTVTVSS
VL: DIQMTQSPSTLSASVGDRVTITCRAGQSISGWLAWFQQKPGKAPNLLIYETSTLESGVPSRFSGSGSGTEYTLTISSLQPDDFATYYCQQYYSYPLTFGQGTKVEIKR
notes: Anti-PVRIG positive control, IgG4 S228P/F234A/L235A/K447A; also called positive antibody Tab5; CPA.7.021 variable regions on human IgG4/kappa

Key:
[1] = molecular target: T1, human TIGIT expressed on cells (human, UniProt Q495A1 22-244); experiment: FACS by the method of Example 2-2 with human TIGIT; numbers not given
T1 construct: whole, on cells; also called cells overexpressing human TIGIT; CHO-K1 cell strain expressing the human TIGIT gene
T1 sequence (looked up): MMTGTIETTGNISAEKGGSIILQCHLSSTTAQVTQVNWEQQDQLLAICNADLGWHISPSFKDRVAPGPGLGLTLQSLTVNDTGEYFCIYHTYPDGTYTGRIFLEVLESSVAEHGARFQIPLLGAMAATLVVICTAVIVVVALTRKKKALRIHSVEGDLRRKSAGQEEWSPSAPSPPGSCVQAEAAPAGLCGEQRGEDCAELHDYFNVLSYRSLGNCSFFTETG

[2] = molecular target: T2, human TIGIT recombinant protein (human, UniProt Q495A1 22-141); experiment: ELISA by the method of Example 2-2 with human TIGIT; numbers not given
T2 construct: also called human TIGIT antigen (AcroBiosystem, TIT-H52H3); TIGIT protein
T2 sequence (looked up): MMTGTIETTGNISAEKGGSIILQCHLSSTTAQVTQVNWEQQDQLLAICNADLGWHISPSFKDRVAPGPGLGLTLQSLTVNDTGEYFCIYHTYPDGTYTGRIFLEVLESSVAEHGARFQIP

[3] = molecular target: T3, his-tagged human PVRIG (h-PVRIG-his) recombinant protein (human, UniProt Q6DKI7 41-171, limits assumed); experiment: BLI (Fortebio), antibody on Protein A sensor, his-tagged human PVRIG as analyte
T3 construct: Acrobiosystems; also called Human PVRIG-his; human PVRIG recombinant protein; not shown: his tag
T3 sequence (looked up): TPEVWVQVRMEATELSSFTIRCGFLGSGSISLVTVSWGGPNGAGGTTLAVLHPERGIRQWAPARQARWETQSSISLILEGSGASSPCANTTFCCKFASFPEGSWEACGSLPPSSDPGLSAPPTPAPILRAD
Procedure: A Protein A biosensor (Fortebio, #18-5010) was immersed in 200 μL of KB buffer (PBS, pH 7.4, 0.02% tween-20, 0.10% BSA) for 60 s as a wetting treatment. Then an anti-PVRIG antibody was diluted to 10 μg/mL with KB buffer, and the sensor was immersed in 200 μL of the solution until the reading was 1.2 nm. The sensor was immersed in KB buffer for 100 s to remove excess antibody. […] The sensor was placed in the solution for 300 seconds of binding and then in KB buffer for 600 seconds of dissociation. Fitting was performed using a dynamic 1:1 binding mode.

[4] = molecular target: T4, human PVRIG expressed on cells (human, UniProt Q6DKI7 41-326); experiment: cell-based or functional assay
T4 sequence (looked up): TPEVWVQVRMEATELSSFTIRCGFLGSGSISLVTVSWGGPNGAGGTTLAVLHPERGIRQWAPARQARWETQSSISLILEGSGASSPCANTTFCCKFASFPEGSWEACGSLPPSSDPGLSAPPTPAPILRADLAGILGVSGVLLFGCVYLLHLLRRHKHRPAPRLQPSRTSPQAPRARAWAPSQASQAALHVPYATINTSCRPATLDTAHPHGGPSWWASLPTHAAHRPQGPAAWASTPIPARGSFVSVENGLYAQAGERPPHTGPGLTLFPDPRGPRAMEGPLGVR

[5] = molecular target: T4, human PVRIG expressed on cells; experiment: cell-based or functional assay; remark: listed apart in the source
[6] = molecular target: T4, human PVRIG expressed on cells; experiment: cell-based or functional assay; remark: listed apart in the source

| Binder | binding result [1] | binding result [2] | kon [3] [M⁻¹ s⁻¹] | PVRIG reporter gene cell activity EC50 [4] [nM] | IFNγ, mixed lymphocyte reaction, 4 nM antibody [5] [pg/mL] | IFNγ, mixed lymphocyte reaction, 20 nM antibody [5] [pg/mL] | IFNγ, mixed lymphocyte reaction, 100 nM antibody [5] [pg/mL] | PVRIG reporter gene cell activity EC50 [6] [nM] |
| --- | --- | --- | --- | --- | --- | --- | --- | --- |
| B1 | binds | binds |  |  |  |  |  |  |
| B2 |  |  | 737000 | 0.74 | 912 | 1420 | 2350 | 1.38 |
